# Entries after “also recorded” stand apart in the source; their conditions may differ.
# B1: pp296: Modified PlySs2 lysin, SEQ ID NO: 6: L92W, V104S, V128T, Y137S, Y164K, N184D, S198Q (protein)
# chain: MTTVNEALNNVRAQVGSGVSVGNGECYALASWYERMISPDATVGLGAGVGWVSGAIGDTISAKNIGSSYNWQANGWTVSTSGPFKAGQIVTWGATPGNPYGHVSIVEAVDGDRLTILEQNYGGKRYPTRNYYSAASSRQQVVHYITPPGTVAQSAPNLAGSRSKRETGTMTVTVDALNVRRAPDTSGEIVAVYKRGEQFDYDTAIIDVNGYAWVSYIGGSGKRNYVATGATKDGKRFGNAWGTFK
# What was measured:
# [1] = 7-day repeated 2-hour infusion toxicity study in rats; format: in vivo, Sprague Dawley rats; details: rats, 0.5, 2.5, or 10 mg/kg/day, 7 consecutive days
# Method: The objective of this study was to evaluate the potential toxicity and toxicokinetic profile of modified lysin polypeptide pp296 when administered daily by 2-hour infusion to Sprague Dawley rats for 7 consecutive days.
# Experimental procedures, animals and treatment are summarized below in Table 11.
# All surviving animals were submitted for necropsy on Day 8 (Terminal Euthanasia). Necropsies were performed and organ weights were collected by Testing Facility personnel. Statistical analysis of organ weight data was performed by the testing facility engaged on a fee-for-service commercial basis. Tissues required for microscopic evaluation were trimmed, processed routinely, embedded in paraffin, and stained with hematoxylin and eosin by Charles River Laboratories Ashland, LLC. Microscopic evaluation was conducted by a board-certified veterinary pathologist on select protocol-specified tissues from all animals in Groups 1 through 4 and all gross lesions from all animals. Tissues were evaluated by light microscopy.
# [2] = Toxicity screening in mice; format: in vivo; details: 30 mg/kg
# Method: Selected modified lysin polypeptides from Table 3 were subjected to further testing as described in more detail in subsequent Examples. […] The same 30 mg/kg dose of PlySs2 caused a 100% incidence of adventitial findings, which is an indication of potential toxicity.
# MSSA isolates = experiment: MIC in CAMHB-HSD against MSSA isolates; format: cell-based, Staphylococcus aureus; details: 51 MSSA isolates
# Method: In vitro activity of the modified lysin polypeptide pp296 was assessed against a range of 51 MSSA and 51 MRSA isolates in cation-adjusted Mueller Hinton broth supplemented with 25% horse serum and 0.5 mM DTT (CAMHB-HSD) and compared to WT GMP grade PlySs2 (CF-301). CF-301 and pp296 were each diluted into CAMHB-HSD. For each lysin, the dilution series is set up such that, after a two-fold dilution of each well of the plate, the final concentrations contained: 64, 32, 16, 8, 4, 2, 1, 0.5, 0.25, and 0.125 μg/mL. Each lysin was tested in duplicate against each strain. Preparations were incubated overnight. Growth was visualized as a growth button approximately 2 mm in diameter. The highest dilution that yielded ≥80% growth inhibition was called the minimum inhibitory concentration (MIC). The activity of pp296 was very similar, within one 2-fold dilution, to that of CF-301, as shown below in Table 7.
# MRSA strain MW2 = experiment: Serial passage resistance assay; format: cell-based, Staphylococcus aureus
# Method: An analysis of bacterial resistance was performed using MRSA strain MW2 over 18 days of serial passage in the presence of a pp296 dilution series and an antibiotic dilution series in presence and absence of sub-MIC amounts of pp296. Briefly, the broth microdilution MIC format was used in which 2-fold dilutions ranges of pp296 alone or antibiotic in the presence and absence of a fixed sub-MIC amount of pp296 was cultured with bacteria (5×10^5 CFU/ml starting concentration) in MHB for 20 hours at 37° C. The well with the highest concentration of the modified lysin polypeptide in which bacterial growth was seen was then used as the inoculum for the next day's passage, and the process was repeated over a […]. The MIC at each daily time-point was recorded, and resistance was measured as a step-wise increase in MIC. […] The results are depicted graphically in FIGS. 3A-3C.
# bacterial inoculum = experiment: Thermal stability: in vitro lytic assay after 30 min heating; format: cell-based
# Method: Thermal stability was assessed by incubating the lysin polypeptides at a fixed concentration of 128 μg/mL in Tris buffer pH 8.0 for 30 minutes at various elevated temperatures (within the range of about 30° C. to 60° C.) prior to assessing activity. The samples were then cooled for 2 minutes on ice and activity was then assessed by an in vitro lytic assay by exposing a bacterial inoculum (OD600 ˜0.5-1.2) in Tris buffer to a 2-fold dilution series of each sample (diluted from 128-0.25 μg/mL across the x-axis of a 96 well microtiter plate). The loss of optical density was followed for 15 minute at room temperature, and the specific activity was determined based on the enzyme concentration enabling a 50% loss of optical density at 15 minutes. The enzyme activities of each variant were compared to the wild-type, CF-301 enzyme (GMT-grade PlySs2 protein) to calculate the % of Wild-Type Activity over a range of temperatures.
# The thermal stability of wild-type, CF-301 was arbitrarily set at 100. The results for exemplary modified lysin polypeptides are set forth below in Table 5 at a single temperature of 37° C.:
# In another experiment, the thermal stability of modified lysin polypeptides was assessed at different temperatures and compared with that of wild-type, CF-301 (set at 100).
# [3] = Single 2-hour intravenous infusion toxicity study in rats; format: in vivo, Sprague Dawley rats
# Excerpt: The objectives of this study were to evaluate the potential toxicity and toxicokinetic profile of pp296 when administered as a single 2-hour intravenous infusion to Sprague Dawley rats, as well as to evaluate the recovery, persistence, or progression of any effects following a minimum of a 3-day recovery period.
# The following Tables 9 and 10 present the study group arrangement. There were 5 male and 5 female rats per group in Phase A.
# For the main (Phase A) and toxicokinetic (Phase B) phases, animals received a single 2-hour intravenous infusion. Phase A animals received a single 2-hour intravenous infusion at escalating doses until the maximum tolerated dose (MTD) was determined up to a high dose of 100 mg/kg. A minimum of 3 days of observation was allowed between each pp296 dose. Animals assigned to Groups 2 through 5 were necropsied approximately 72 hours following the end of dose administration. ^aThe vehicle was 20 mM L-histidine, 5% D-sorbitol (w/v), pH 7.0 (±0.1).
# The following parameters and endpoints were evaluated in this study: clinical signs, body weight, body weight gain, food consumption, clinical pathology parameters (hematology, coagulation, serum chemistry, and urinalysis), gross necropsy findings, and histopathologic examinations.
molecule,measurement,setting,value
B1,Toxicity findings,[1]; 2-hour infusion,"No toxicity was found; also recorded: no pp296-related gross, microscopic, or organ weight findings"
same,Unscheduled deaths,[1],no unscheduled deaths
same,Adventitial findings (lesions),[2],no adventitial findings; also recorded: did not result in adventitial lesions
same,MIC50,MSSA isolates,1 µg/mL
same,MIC90,MSSA isolates,1 µg/mL
same,MIC Range,MSSA isolates,0.5 to 2 µg/mL
same,Increase in MIC of DAP or VAN / appearance of antibiotic resistance,MRSA strain MW2; antibiotic plus fixed sub-MIC amount of lysin,no or very little increase; also recorded: suppressed the appearance of daptomycin and vancomycin resistance
same,Resistance to the lysin (increase in MIC on serial passage),"MRSA strain MW2; lysin alone, three replicate lineages, 21-26 day period",no or very little increase; also recorded: no resistance to pp296 was observed
same,Amount needed to suppress DAP resistance,"MRSA strain MW2; with daptomycin, 1/16th the MIC for pp296 alone",0.125 µg/mL
same,Amount needed to suppress development of VAN resistance,"MRSA strain MW2; with vancomycin, 1/8th the MIC for pp296 alone",0.25 µg/mL
same,% Wild-Type Activity at 37° C.,"bacterial inoculum; 30 minutes at 37° C., 128 μg/mL in Tris buffer pH 8.0, CF-301 set at 100",205%
same,"% of CF-301 wild-type, 37° C.","bacterial inoculum; 30 minutes at 37° C., another experiment",204.6%
same,"% of CF-301 wild-type, 40° C.",bacterial inoculum; 30 minutes at 40° C.,243.1%
same,"% of CF-301 wild-type, 42° C.",bacterial inoculum; 30 minutes at 42° C.,141.2%
same,"% of CF-301 wild-type, 45° C.",bacterial inoculum; 30 minutes at 45° C.,40.1%
same,"% of CF-301 wild-type, 48° C.",bacterial inoculum; 30 minutes at 48° C.,0.0%
same,"% of CF-301 wild-type, 50° C.",bacterial inoculum; 30 minutes at 50° C.,0.0%
same,No-observed-adverse-effect level (NOAEL),[3]; single 2-hour intravenous infusion,> 100 mg/kg
same,Tolerability / adverse findings,"[3]; single intravenous infusion, 5, 25, 50, and 100 mg/kg",well tolerated with no adverse findings at all doses; also recorded: well-tolerated with no adverse findings at all doses

# Source: patent publication US20210032294A1, “MODIFIED PlySs2 LYSINS AND USES THEREOF” (CONTRAFECT CORPORATION, priority 2018, published 2021)
